Where “and” joins values, the source holds several entries; their conditions need not be identical. Equal entries are not always repeated. Entries after “also recorded” stand apart in the source; their conditions may differ.
B1: (OVA)-3-1: ovalbumin modified via SMCC with nonasaccharide 3-1, average of three saccharides per OVA (conjugate)
chain: GSIGAASMEFCFDVFKELKVHHANENIFYCPIAIMSALAMVYLGAKDSTRTQINKVVRFDKLPGFGDSIEAQCGTSVNVHSSLRDILNQITKPNDVYSFSLASRLYAEERYPILPEYLQCVKELYRGGLEPINFQTAADQARELINSWVESQTNGIIRNVLQPSSVDSQTAMVLVNAIVFKGLWEKAFKDEDTQAMPFRVTEQESKPVQMMYQIGLFRVASMASEKMKILELPFASGTMSMLVLLPDEVSGLEQLESIINFEKLTEWTSSNVMEERKIKVYLPRMKMEEKYNLTSVLMAMGITDVFSSSANLSGISSAESLKISQAVHAAHAEINEAGREVVGSAEAGVDAASVSEEFRADHPFLFCIKHIATNAVLFFGRCVSP
B2: ovalbumin (protein, UniProt P01012 2-386, looked up)
Ovalbumin: B1 chain
notes: model antigen, unmodified

How the values were obtained:
[1] = test system: CD11c+ dendritic cells / OTII T cells; test: Antigen presentation assay, purified CD11c+ dendritic cells and purified OTII T cells; assay type: cell-based, mouse
Protocol: FIGS. 4A, 4B, 4C and 4D are graphs showing that CD11c^+ dendritic cells are the main antigen presenting cells presenting 3-1-targeted antigen. […] 1.5×10^4 Splenic CD11c^+ dendritic cells purified from C57BL/6 mice and 3.0×10^4 purified OTII T cells were incubated with OVA (starting concentration 300 μg mL^−1) or (OVA)-3-1 (starting concentration 25 μg mL^−1) in graded doses for eight-four hours with [^3H]thymidine (1 μCi) added for the last twelve hours. […] Purified CD11c^+ dendritic cells and OTII T cells were incubated with (OVA)-3-1 (25 μg mL^−1)±each potential inhibitor (100 μg mL^−1). T cell proliferation was determined as for FIG. 4A. […] CD11c^+ dendritic cells and OTII T cells were incubated with OVA or (OVA)-3-1±lipopolysaccharide ([…]). Also included are all ‘non-dendritic cells’ (macrophages and B cells) obtained during the purification of the dendritic cells. T cell proliferation was determined as described in FIG. 4A. […] Supernatants from cells described in FIG. 4C were collected at forty-eight and seventy-two hours and measured for IFN-γ by ELISA; the values presented are from the seventy-two hour time point. All measurements here were performed in triplicate.
To confirm that the increased T cell proliferation observed with (OVA)-3-1 was due to the selective uptake of this conjugate by dendritic cells and not B cells or macrophages, purified CD11c^+ dendritic cells were prepared from wild-type C57BL/6 mice and the OVA-specific T cells from transgenic OTII mice (see Materials & Methods). The in vitro antigen presentation assays described above were then repeated. […] By comparison, >50-fold more unmodified OVA was required to obtain similar levels of T cell proliferation. When B cells and macrophages were used as antigen-presenting cells in place of purified dendritic cells, the resulting T cell responses were negligible (FIG. 4C), providing strong confirmation that CD11c^+ dendritic cells are the main antigen-presenting cells mediating uptake and presentation of (OVA)-3-1 to OTII T cells.
Pooled inguinal lymph nodes were dissociated in 10% Fetal Bovine Serum RPMI (supplemented with 2 mM L-glutamine) and either mechanically dissociated between two glass slides or, to improve the overall cell yield, incubated in the presence of collagenase (Boehringer) and EDTA for 25 minutes at 37° C./5% CO2 to dissociate DC-T cell clusters. For antigen presentation assays with whole splenocytes, isolated spleens were injected with collagenase/EDTA, gently teased apart and incubated as described above. Splenocytes were cultured in 96-well round-bottom plates at a density of 3×10^5 cells/0.2 mL. In antigen presentation assays utilizing purified dendritic cells and T cells, dendritic cells were isolated from the spleens of C57BL/6 mice following collagenase/EDTA treatment by labeling the dendritic cells with commercially available magnetic microbeads linked to an anti-CD11c^+ antibody (Miltenyi Biotec, Bergisch Gladbach, Germany) (according to the Miltenyi Biotec protocol) and separating labeled Dendritic cells from non-dendritic cells by application of a magnetic field. Similarly, purified […] T cells were obtained from spleens of OTII transgenic mice using magnetic beads Dynal (Oslo, Norway). Purified dendritic cells and T cells were seeded onto 96-well plates round-bottom Plates at a 1:2 DC:T cell ratio unless stated otherwise in the Figures.

OTII T cells = test: Adoptive transfer of CFSE-labeled OTII cells, immunization with CFA or mBSA, cell number and CFSE dilution; assay type: in vivo, mouse; conditions: for T cells that had undergone cell division: antigen 50 ng ± mBSA 50 μg subcutaneous, CFSE
Protocol: FIGS. 7A and 7B are a series of dot plots showing that inflammatory stimuli dampen the effects of DC targeting by (OVA)-3-1. FIG. 7A includes two dot plots showing the 5-(6)-carboxyfluorescein diacetate succinimidyl ester (CFSE), a cell-permeable dye, intensity present in a population of cells. 2×10^7 CFSE-labeled OTII splenocytes were adoptively transferred to B6.Ly5.2/Cr recipients and the mice were immunized subcutaneously with OVA (200 ng) or (OVA)-3-1 (200 ng) emulsified in Complete Freund's Adjuvant. At seventy-two hours post immunization the draining inguinal lymph nodes were isolated and the expansion of CD45.2^+Vα2^+ was evaluated for CFSE dilution by flow cytometry. 4×10^5 total counts were collected. The plots display the CFSE intensity associated with the gated population of Vα2^+CD45.2^+ donor cells. The numbers indicate the percentage of CFSE high (undivided; R3 gate) and CFSE low (divided; R4 gate) OTII T cells. FIG. 7B is a series of five dot plots showing the enhancement in T cell proliferation promoted by neoglycoprotein mBSA. CFSE-labeled OTII splenocytes were adoptively transferred as in (A) and mice were immunized subcutaneously with mBSA (50 μg); OVA (50 ng); (OVA)-3-1 (50 ng); OVA (50 ng)+mBSA (50 μg) or (OVA)-3-1 (50 ng)+mBSA (50 μg). At 3 days the mice were sacrificed and isolated cells were analyzed as described in (A). Both FIGS. 7A and 7B are results from one of two separate experiments.
These cytokines aid in the recruitment and activation of monocytes and dendritic cells at the site of administration, thereby promoting a heightened immune response. […] Prior to transferring the CD45.2 OTII T cells to the B6.Ly5.2/Cr recipients, the cells were stained with 5-(6)-carboxyfluorescein diacetate succinimidyl ester (CFSE), a cell-permeable dye that freely crosses the cell membrane; once inside the cell, however, cellular esterases hydrolyze the CFSE's ester functional groups to generate a negatively charged molecule that cannot cross back across the cell membrane. This dye is used to monitor cell division by flow cytometry as each successive cell division leads to a dilution of CFSE among the daughter cells.
To administer pro-inflammatory stimuli at the same time as soluble antigen, OVA and (OVA)-3-1 were emulsified in Complete Freund's Adjuvant (CFA) prior to immunization. CFA is an oil-based mixture of mycobacterial cell wall components that is known to induce strong TH1 T cell responses^2. Seventy-two hours after immunization, cells from the draining lymph nodes were isolated and analyzed by flow cytometry for cell number and divisions (FIG. 7A). […] In fact, the enhancement previously observed relative to soluble OVA (FIG. 6B) was largely diminished. […] Without being tied to one particular theory, one potential reason for this observation could be that dendritic cells targeted with (OVA)-3-1 produced more peptide-MHC class II complexes than those targeted by OVA as receptor-mediated endocytosis delivered more antigen to the cell before full maturation was reached^10.
Since most lectins have weak affinities for monosaccharides, these experiments were repeated with BSA that was modified with approximately 25 mannose residues per protein molecule (mBSA). […] Mice that had received CFSE-labeled OTH T cells were immunized with mBSA, OVA, (OVA)-3-1, OVA plus mBSA, or (OVA)-3-1 plus mBSA and their T cell responses were analyzed at seventy-two hours (FIG. 7B). […]

[2] = purified CD11c+ dendritic cells and OTII T cells

Molecule	inhibitory effect on (OVA)-3-1 presentation by dendritic cells ([1]; (OVA)-3-1 25 μg mL^−1, inhibitor 100 μg mL^−1)	OTII T cell proliferation after immunization with mBSA alone (OTII T cells; mBSA 50 μg subcutaneous, 72 h)	capture and presentation by purified CD11c+ dendritic cells to OTII T cells compared to soluble OVA ([1]; parallel titration series)	decrease in presentation to OTII T cells as a result of TLR-mediated dendritic cell maturation ([1]; plus lipopolysaccharide (LPS))	presentation to T cells upon TLR-4 stimulation ([1]; plus lipopolysaccharide (LPS))	low concentration at which capture and presentation was still highly efficient [1, 2]	increase in OTII T cell number compared to OVA (OTII T cells; 50 ng subcutaneous, 72 h)	T cells that had undergone cell division (OTII T cells; 72 h)	enhancement of T cell activation / proliferation relative to OVA in saline (OTII T cells; in vivo immunization)	excess of unmodified OVA required to obtain levels of T cell proliferation similar to (OVA)-3-1 [1, 2]
mBSA: BSA modified with approximately 25 mannose residues per protein molecule [reference compound]	Neither mBSA nor Lewis^x-BSA were inhibitory	did not proliferate								
B1			highly efficient; also recorded: efficiently present	60%	remained better than targeting by unmodified OVA; also recorded: significantly decreased	16 nM	2 fold	58% and 55%	2 fold	
B2				30%				33%		> 50 fold
